Reference: patent US20220125885A1, “GLUCAGON ANALOG AGONISTS AND METHODS OF USING THE SAME” (Eli Lilly and Company, priority 2019, published 2022)
Where no end group is shown, it is not given here. [ ]: non-standard residue; d: D form. 4Pal = N[C@@H](Cc1ccncc1)C(=O)O; Dab = NCC[C@H](N)C(=O)O; Aib = CC(C)(N)C(=O)O

T1: human GIP receptor (hGIP-R) (Homo sapiens, UniProt P48546)
T1 construct: expressed in transfected cells; host or cells: HEK-293 clonal cell line
T1 sequence (P48546 22-466): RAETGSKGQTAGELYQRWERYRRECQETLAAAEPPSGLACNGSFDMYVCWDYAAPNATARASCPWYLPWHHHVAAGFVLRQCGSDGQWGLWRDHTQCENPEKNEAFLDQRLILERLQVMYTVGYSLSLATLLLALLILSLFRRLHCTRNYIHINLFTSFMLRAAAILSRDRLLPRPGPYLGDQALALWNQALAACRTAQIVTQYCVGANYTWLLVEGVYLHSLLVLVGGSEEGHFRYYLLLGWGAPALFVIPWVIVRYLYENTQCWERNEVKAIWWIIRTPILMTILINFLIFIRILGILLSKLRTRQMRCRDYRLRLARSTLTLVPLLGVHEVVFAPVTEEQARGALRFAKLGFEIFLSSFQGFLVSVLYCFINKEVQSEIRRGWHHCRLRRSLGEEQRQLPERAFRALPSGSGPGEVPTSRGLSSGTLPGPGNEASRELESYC


Legend:
[1] = in vivo; conditions: male, Yucatan miniature swine, pig, sc, 10 ug/kg
Experimental: 1. […] The compounds and an analog as an internal standard are extracted from […] by antibody or protein precipitations. The intact mass of the compounds are detected by a Q Exactive® Orbitrap® Mass Spectrometer (Thermo Fisher Scientific; Waltham, Mass.). 2. […] Blood is collected at pre-dose, 2, 5, 10, 15, 20, 25, 30, 45, 60, 75, 90, 120 and 150 minutes post-dose, and plasma is obtained for pharmacokinetic characterization. […] Blood is collected at pre-dose, 2, 5, 10, 15, 20, 25, 30, 45, 60, 75, 90, 120 and 150 minutes postdose, and plasma is obtained for pharmacokinetic characterization.

[2] = target: T1, human GIP receptor (hGIP-R); experiment: cAMP functional activity assay, hGIP-R HEK-293 cells; assay type: cell-based
Experimental: After a sixty-minute incubation at room temperature, the resulting increase in intracellular cAMP is quantitatively determined using a cAMP Dynamic 2 HTRF Assay Kit (62AM4PEJ; CisBio; Codolet, FR). Briefly, cAMP levels within the cell are detected by adding a cAMP-d2 conjugate in cell lysis buffer (10 μl) followed by an anti-cAMP-Eu3+-Cryptate antibody, also in cell lysis buffer (10 μl). […] A relative EC50 value and percent top (Emax) are derived by non-linear regression analysis using the percent maximal response vs. the concentration of peptide added, fitted to a four-parameter logistic equation.

[3] = target: T2, human GLP-1 receptor (hGLP-1R) (Homo sapiens, UniProt P43220); experiment: cAMP functional activity assay, hGLP-1R HEK-293 cells; assay type: cell-based; conditions: HEK293; percent of response to 10 nM GLP-1(7-36)NH2; mean ± SEM
T2 construct: expressed in transfected cells; host or cells: HEK-293 clonal cell line
T2 sequence (P43220 24-463): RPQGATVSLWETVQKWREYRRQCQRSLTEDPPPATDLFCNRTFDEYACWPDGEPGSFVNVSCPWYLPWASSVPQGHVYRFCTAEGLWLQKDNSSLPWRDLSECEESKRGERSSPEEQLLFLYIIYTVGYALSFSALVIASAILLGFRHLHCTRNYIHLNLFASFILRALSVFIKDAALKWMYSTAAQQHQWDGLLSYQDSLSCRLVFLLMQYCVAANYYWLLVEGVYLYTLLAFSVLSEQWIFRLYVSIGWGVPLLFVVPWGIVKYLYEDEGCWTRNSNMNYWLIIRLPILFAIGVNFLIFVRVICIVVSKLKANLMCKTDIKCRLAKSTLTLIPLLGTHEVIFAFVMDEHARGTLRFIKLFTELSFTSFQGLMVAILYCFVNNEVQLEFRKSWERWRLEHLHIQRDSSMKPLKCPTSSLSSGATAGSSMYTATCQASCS

[4] = target: T3, human GLP-1 receptor (human, UniProt P43220 24-463); experiment: cell-based or functional assay
[5] = target: T4, human glucagon receptor (human, UniProt P47871 26-477); experiment: cell-based or functional assay
T4 sequence (P47871 26-477): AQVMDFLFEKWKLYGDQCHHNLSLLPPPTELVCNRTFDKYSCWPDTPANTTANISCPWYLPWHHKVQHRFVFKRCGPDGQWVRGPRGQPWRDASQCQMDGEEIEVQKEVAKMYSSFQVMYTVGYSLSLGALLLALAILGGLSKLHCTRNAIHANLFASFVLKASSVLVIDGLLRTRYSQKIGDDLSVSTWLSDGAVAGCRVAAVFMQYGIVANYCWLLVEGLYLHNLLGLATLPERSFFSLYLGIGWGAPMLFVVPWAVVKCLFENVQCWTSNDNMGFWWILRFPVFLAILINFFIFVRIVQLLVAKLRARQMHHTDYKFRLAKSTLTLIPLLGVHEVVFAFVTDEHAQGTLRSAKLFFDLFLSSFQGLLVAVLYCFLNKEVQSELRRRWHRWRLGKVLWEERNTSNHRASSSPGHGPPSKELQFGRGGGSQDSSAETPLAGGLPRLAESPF

[6] = target: human GIP receptor (human) (UniProt P48546); experiment: cell-based or functional assay
[7] = target: T5, rat glucagon receptor (rat, UniProt P30082 27-485); experiment: cell-based or functional assay
T5 sequence (P30082 27-485): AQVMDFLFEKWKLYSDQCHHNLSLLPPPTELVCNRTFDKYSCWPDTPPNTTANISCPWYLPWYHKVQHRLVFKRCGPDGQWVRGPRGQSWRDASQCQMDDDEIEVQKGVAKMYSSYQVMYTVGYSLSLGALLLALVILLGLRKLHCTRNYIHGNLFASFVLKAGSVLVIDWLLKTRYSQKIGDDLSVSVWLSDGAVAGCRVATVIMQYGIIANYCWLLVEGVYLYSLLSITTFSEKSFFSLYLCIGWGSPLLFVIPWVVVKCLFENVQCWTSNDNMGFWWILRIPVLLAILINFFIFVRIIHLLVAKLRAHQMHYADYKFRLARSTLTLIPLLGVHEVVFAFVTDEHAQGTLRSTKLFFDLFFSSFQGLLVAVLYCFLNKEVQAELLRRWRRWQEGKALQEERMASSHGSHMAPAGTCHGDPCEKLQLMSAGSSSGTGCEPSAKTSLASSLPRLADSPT

[8] = target: T5, rat glucagon receptor; experiment: SPA competition with 125I-labelled glucagon on rGCGR membranes
Experimental: (§1) Plates are sealed, mixed on a plate shaker, and read with a MicroBeta™ scintillation counter (PerkinElmer) after 12 hr of settling time at room temperature.
The SPA receptor binding assay and calculation of the results are carried out as described in the hGCGR binding assay.

[9] = target: T4, human glucagon receptor; experiment: SPA competition with 125I-labelled glucagon on hGCGR membranes
Text: as §1

[10] = target: T3, human GLP-1 receptor; experiment: cell-based or functional assay; remark: listed apart in the source
[11] = target: T4, human glucagon receptor; experiment: cell-based or functional assay; remark: listed apart in the source

| Molecule | AUC(0-inf) ([1]; AUC0-inf) | CL/F ([1]; CL/F) | Emax at 9.95 µM ([2]; HEK293, percent of response to 10 nM GIP(1-42)NH2, Examples at 9.95 μM, read-out: Emax hGIPR) | EC50 ([2]; in the presence of FBS and BSA, read-out: cAMP EC50 hGIPR) | Emax [3] | cAMP EC50 [4] | cAMP EC50 [5] | Emax (% of response to 10 nM GIP(1-42)NH2), at 9.95 µM [6] | cAMP EC50 [6] | cAMP EC50 [7] | Ki [8] | Ki [9] | Emax (% of response to 10 nM GLP-1(7-36)NH2) [10] | Emax (% of response to 1 nM Glucagon) [11] |
| --- | --- | --- | --- | --- | --- | --- | --- | --- | --- | --- | --- | --- | --- | --- |
| CC(C)C[C@H](NC(=O)[C@H](Cc1ccncc1)NC(=O)[C@H](CCCCN)NC(=O)[C@@H](NC(=O)[C@H](Cc1ccccc1)NC(=O)[C@H](C)NC(=O)[C@H](CCC(N)=O)NC(=O)[C@H](C)NC(=O)[C@H](CCCNC(=N)N)NC(=O)[C@H](CCCNC(=N)N)NC(=O)C(C)(C)NC(=O)[C@H](CC(=O)O)NC(=O)[C@H](CC(C)C)NC(=O)[C@H](Cc1ccc(O)cc1)NC(=O)[C@H](CCCCN)NC(=O)[C@H](CO)NC(=O)[C@H](Cc1ccc(O)cc1)NC(=O)[C@H](CC(=O)O)NC(=O)[C@H](CO)NC(=O)[C@@H](NC(=O)[C@H](Cc1ccccc1)NC(=O)[C@@H](NC(=O)CNC(=O)[C@H](CCC(N)=O)NC(=O)[C@H](CO)NC(=O)[C@@H](N)Cc1c[nH]cn1)[C@@H](C)O)[C@@H](C)O)C(C)C)C(=O)N[C@@H](CC(C)C)C(=O)N[C@@H](CO)C(=O)N[C@H](C(=O)O)[C@@H](C)O [Example 2] | 1.92 ng·h/mL | 87 mL/min/kg | < 5% | > 9950 nM | 109 ± 4% |  |  |  |  |  |  |  |  |  |
| HSQGTFTSDYSKYLD[Aib]RRAQQFVK[4Pal]LLST-OH (N-terminus assumed; SMILES CC(C)C[C@H](NC(=O)[C@H](Cc1ccncc1)NC(=O)[C@H](CCCCN)NC(=O)[C@@H](NC(=O)[C@H](Cc1ccccc1)NC(=O)[C@H](CCC(N)=O)NC(=O)[C@H](CCC(N)=O)NC(=O)[C@H](C)NC(=O)[C@H](CCCNC(=N)N)NC(=O)[C@H](CCCNC(=N)N)NC(=O)C(C)(C)NC(=O)[C@H](CC(=O)O)NC(=O)[C@H](CC(C)C)NC(=O)[C@H](Cc1ccc(O)cc1)NC(=O)[C@H](CCCCN)NC(=O)[C@H](CO)NC(=O)[C@H](Cc1ccc(O)cc1)NC(=O)[C@H](CC(=O)O)NC(=O)[C@H](CO)NC(=O)[C@@H](NC(=O)[C@H](Cc1ccccc1)NC(=O)[C@@H](NC(=O)CNC(=O)[C@H](CCC(N)=O)NC(=O)[C@H](CO)NC(=O)[C@@H](N)Cc1c[nH]cn1)[C@@H](C)O)[C@@H](C)O)C(C)C)C(=O)N[C@@H](CC(C)C)C(=O)N[C@@H](CO)C(=O)N[C@H](C(=O)O)[C@@H](C)O) [Example 1 compound (glucagon analog agonist, SEQ ID NO:3)] |  |  |  |  |  | 181 nM | 0.0143 nM | < 5% | > 9950 nM | 0.135 nM | 17.4 nM | 3.18 nM | 105% | 103% |
| HSQGTFTSDYSKYLD[Aib]RRAQAFVK[4Pal]LLST-OH (N-terminus assumed; SMILES CC(C)C[C@H](NC(=O)[C@H](Cc1ccncc1)NC(=O)[C@H](CCCCN)NC(=O)[C@@H](NC(=O)[C@H](Cc1ccccc1)NC(=O)[C@H](C)NC(=O)[C@H](CCC(N)=O)NC(=O)[C@H](C)NC(=O)[C@H](CCCNC(=N)N)NC(=O)[C@H](CCCNC(=N)N)NC(=O)C(C)(C)NC(=O)[C@H](CC(=O)O)NC(=O)[C@H](CC(C)C)NC(=O)[C@H](Cc1ccc(O)cc1)NC(=O)[C@H](CCCCN)NC(=O)[C@H](CO)NC(=O)[C@H](Cc1ccc(O)cc1)NC(=O)[C@H](CC(=O)O)NC(=O)[C@H](CO)NC(=O)[C@@H](NC(=O)[C@H](Cc1ccccc1)NC(=O)[C@@H](NC(=O)CNC(=O)[C@H](CCC(N)=O)NC(=O)[C@H](CO)NC(=O)[C@@H](N)Cc1c[nH]cn1)[C@@H](C)O)[C@@H](C)O)C(C)C)C(=O)N[C@@H](CC(C)C)C(=O)N[C@@H](CO)C(=O)N[C@H](C(=O)O)[C@@H](C)O) [Example 2 compound (glucagon analog agonist, SEQ ID NO:4)] |  |  |  |  |  | 250 nM | 0.0265 nM | < 5% | > 9950 nM | 0.204 nM | 34.2 nM | 6.87 nM | 109% |  |
| HS[Dab](Ac)GTFTSDYSKYLD[Aib]RRAQAFVK[4Pal]LLST-OH (N-terminus assumed; SMILES CC(=O)NCC[C@H](NC(=O)[C@H](CO)NC(=O)[C@@H](N)Cc1c[nH]cn1)C(=O)NCC(=O)N[C@H](C(=O)N[C@@H](Cc1ccccc1)C(=O)N[C@H](C(=O)N[C@@H](CO)C(=O)N[C@@H](CC(=O)O)C(=O)N[C@@H](Cc1ccc(O)cc1)C(=O)N[C@@H](CO)C(=O)N[C@@H](CCCCN)C(=O)N[C@@H](Cc1ccc(O)cc1)C(=O)N[C@@H](CC(C)C)C(=O)N[C@@H](CC(=O)O)C(=O)NC(C)(C)C(=O)N[C@@H](CCCNC(=N)N)C(=O)N[C@@H](CCCNC(=N)N)C(=O)N[C@@H](C)C(=O)N[C@@H](CCC(N)=O)C(=O)N[C@@H](C)C(=O)N[C@@H](Cc1ccccc1)C(=O)N[C@H](C(=O)N[C@@H](CCCCN)C(=O)N[C@@H](Cc1ccncc1)C(=O)N[C@@H](CC(C)C)C(=O)N[C@@H](CC(C)C)C(=O)N[C@@H](CO)C(=O)N[C@H](C(=O)O)[C@@H](C)O)C(C)C)[C@@H](C)O)[C@@H](C)O) [Example 3 compound (glucagon analog agonist, SEQ ID NO:5)] |  |  |  |  |  | 1300 nM | 0.0108 nM | < 5% | > 9950 nM | 0.188 nM | 21.7 nM | 2.08 nM | 109% |  |
| HS[Dab](Ac)GTFTSDYSKYLD[Aib]RRAQQFVK[4Pal]LLST-OH (N-terminus assumed; SMILES CC(=O)NCC[C@H](NC(=O)[C@H](CO)NC(=O)[C@@H](N)Cc1c[nH]cn1)C(=O)NCC(=O)N[C@H](C(=O)N[C@@H](Cc1ccccc1)C(=O)N[C@H](C(=O)N[C@@H](CO)C(=O)N[C@@H](CC(=O)O)C(=O)N[C@@H](Cc1ccc(O)cc1)C(=O)N[C@@H](CO)C(=O)N[C@@H](CCCCN)C(=O)N[C@@H](Cc1ccc(O)cc1)C(=O)N[C@@H](CC(C)C)C(=O)N[C@@H](CC(=O)O)C(=O)NC(C)(C)C(=O)N[C@@H](CCCNC(=N)N)C(=O)N[C@@H](CCCNC(=N)N)C(=O)N[C@@H](C)C(=O)N[C@@H](CCC(N)=O)C(=O)N[C@@H](CCC(N)=O)C(=O)N[C@@H](Cc1ccccc1)C(=O)N[C@H](C(=O)N[C@@H](CCCCN)C(=O)N[C@@H](Cc1ccncc1)C(=O)N[C@@H](CC(C)C)C(=O)N[C@@H](CC(C)C)C(=O)N[C@@H](CO)C(=O)N[C@H](C(=O)O)[C@@H](C)O)C(C)C)[C@@H](C)O)[C@@H](C)O) [Example 4 compound (glucagon analog agonist, SEQ ID NO:6)] |  |  |  |  |  | 1270 nM | 0.00888 nM | < 5% | > 9950 nM | 0.083 nM | 13.5 nM | 1.2 nM | 100% | 98% |
